Reference: article PMC5727398, “Nucleotide– and Mal3-dependent changes in fission yeast microtubules suggest a structural plasticity view of dynamics” (Nature Communications, 2017)

B2: S. pombe α-tubulin1 (in the microtubule lattice) (natural protein, UniProt P04688 1-455, looked up)
chain: MREVISVHVGQAGVQIGNACWELYCLEHGIGPDGFPTENSEVHKNNSYLNDGFGTFFSETGQGKFVPRSIYVDLEPNVIDQVRTGPYKDLFHPEQMVTGKEDASNNYARGHYTVGKEMIDSVLERIRRMADNCSGLQGFLVFHSFGGGTGSGLGALLLERLNMEYGKKSNLQFSVYPAPQVSTSVVEPYNSVLTTHATLDNSDCTFMVDNEACYDICRRNLDIERPTYENLNRLIAQVVSSITASLRFAGSLNVDLNEFQTNLVPYPRIHFPLVTYSPIVSAAKAFHESNSVQEITNQCFEPYNQMVKCDPRTGRYMATCLLYRGDVIPRDVQAAVTSIKSRRTIQFVDWCPTGFKIGICYEPPQHVPGSGIAKVNRAVCMLSNTTSIAEAWSRLDHKFDLMYSKRAFVHWYVGEGMEEGEFSEAREDLAALERDYEEVGQDSMDNEMYEADEEY
notes: S. pombe alpha-tubulin1, native, untagged; the sample was a wild-type mixture of alpha-tubulin1 and alpha-tubulin2, the model and the residue numbers are those of alpha-tubulin1; Subunit of m2, written alone for the contacts seen in the structure; also called Sp_α-tubulin1; Sp_α-tub; source: purified from S. pombe as tag-free endogenous tubulin (dual isoform), polymerized in vitro

Experiments:
[1] = target: B2; assay: cryo-EM structure; 20 or 30 uM dual-isoform Sp_tub polymerized with 5 mM GTP and 25 uM Mal3-143 at 32 °C in PEM mixed 1:1 with MES buffer; 13 uM MTs incubated with 60 uM Mal3 before freezing; 13-PF (13_3) MTs, single-particle averaging, 4.6 Å, no kinesin motor domain; conditions: both partners purified
[2] = target: the molecule itself; assay: as above
[3] = target: T1, dynamic microtubules polymerized from unlabeled single-isoform S. pombe tubulin (S. pombe, UniProt P04688 1-455; P05219 1-448); assay: TIRF microscopy; dynamic unlabeled MTs grown from antibody-immobilized GMPCPP pig brain MT seeds; GFP-labelled EB protein in solution; PEM100 pH 6.9 plus 1 mM GTP, with additional KCl (55, 75, 85 mM) in some experiments; 4.5 or 14 uM Sp_tub, 25 uM pig brain tubulin; conditions: both partners purified
T1 construct: S. pombe alpha-tubulin1, untagged; S. pombe beta-tubulin, untagged; Polymer of alpha-beta heterodimers, grown with 1 mM GTP from Alexa-488-labeled GMPCPP-stabilized pig brain MT seeds
T1 sequence (P05219 whole entry, canonical isoform, one chain of several): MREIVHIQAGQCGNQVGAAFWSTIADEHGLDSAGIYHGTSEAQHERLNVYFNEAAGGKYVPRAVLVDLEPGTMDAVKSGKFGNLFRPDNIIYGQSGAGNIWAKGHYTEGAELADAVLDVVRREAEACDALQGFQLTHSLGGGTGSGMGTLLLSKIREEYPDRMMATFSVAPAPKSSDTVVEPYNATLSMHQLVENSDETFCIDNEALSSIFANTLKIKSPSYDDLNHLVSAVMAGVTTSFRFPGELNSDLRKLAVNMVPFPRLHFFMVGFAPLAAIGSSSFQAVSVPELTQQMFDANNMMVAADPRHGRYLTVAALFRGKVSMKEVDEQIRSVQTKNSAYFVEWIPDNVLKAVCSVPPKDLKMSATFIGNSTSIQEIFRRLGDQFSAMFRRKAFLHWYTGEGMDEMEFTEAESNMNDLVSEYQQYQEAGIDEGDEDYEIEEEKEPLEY

B1: monomeric Mal3 (1-143, Mal3-143) (domain or fragment, S. pombe, UniProt Q10113 1-143, looked up)
chain: MSESRQELLAWINQVTSLGLTRIEDCGKGYAMIQIFDSIYQDIPLKKVNFECNNEYQYINNWKVLQQVFLKKGIDKVVDPERLSRCKMQDNLEFVQWAKRFWDQYYPGGDYDALARRGNRGPANTRVMNSSAGATGPSRRRQV
notes: also called Mal3 CH domain
- binding result [1]: binds

Binder: B2
- binding result [2]: binds

B3: full-length Mal3-GFP (natural protein, S. pombe, UniProt Q10113 1-308, looked up)
chain: MSESRQELLAWINQVTSLGLTRIEDCGKGYAMIQIFDSIYQDIPLKKVNFECNNEYQYINNWKVLQQVFLKKGIDKVVDPERLSRCKMQDNLEFVQWAKRFWDQYYPGGDYDALARRGNRGPANTRVMNSSAGATGPSRRRQVSSGSSTPSMTKSSANNNNVSSTANTAAVLRAKQAQQQITSLETQLYEVNETMFGLERERDFYFNKLREIEILVQTHLTTSPMSMENMLERIQAILYSTEDGFELPPDQPADLTTALTDHDTNNVAEEAQMTDLKDSETQRVPSAPDFVHARLQSLEVDDDENITF
notes: Mal3, the S. pombe EB protein, full length; His tag removed by TEV protease cleavage; also called dimeric Mal3; not shown: e-GFP, C-terminal, kept
- binding result [3]: binds
